B1: TPR t1 (parent)
chain: GACCAAUCUGCCCUCAGAGCUCGAGAACAUCUUCGGAUGCAGAGGAGGCAGGCUUCGGUGGCGCGAUAGCGCCAACGUCCUCAACCUCCAAUGCAUCCCACCACAUGAUGAUGCCUGAAGAGCCUUGGUUUUUUG

Variants of: B1
Assay: polymerase ribozyme fitness, log enrichment relative to wild type (log ratio); higher = more active; in vitro selection for triplet polymerase activity
Method in brief: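 One round of in vitro selection, in triplicate, was applied to PCR-built, transcribed mutant libraries of each subunit of a heterodimeric triplet polymerase ribozyme. The steps were annealing with a biotinylated primer, partner subunit and triplets, incubation frozen at −7 °C, gel excision of extended constructs, streptavidin-bead capture and RT-PCR. Fitness is the logarithm, base 2, of genotype enrichment over wild-type enrichment from inverse-variance-weighted replicate averages of Illumina-sequenced inputs and outputs, keeping genotypes with ≥10 input reads and ≥1 read per output.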

Variant	polymerase ribozyme fitness (log ratio)
GACCAAUCUGCCCUCAGAGCUCGAGAACAUCUUCGGAUGCAGAGGAGGCAGGCUUCGGUGGCGCGAUAGCGCCAACGUCCUCAACCUCCAAUGCAUCCCACCACAUGAUGAUGCCUGAAAAGCCUUGGUUUCUUG	0.977
GACCAAUCUGCCCUCAGAGCUCGAGAACAUCUUCGGAUGCAGAGGAGGCAGGCUUCGGUGGCGCGAUAGCGCCAACGUCCUCAACCUCCAAUGCAUCCCACCACAUGAUGAUGCCUGAUGAGCCUUGGUUUAUUG	-0.132
GACCAAUCUGCCCUCAGAGCUCGAGAACAUCUUCGGAUGCAGAGGAGGCAGGCUUCGGUGGCGCGAUAGCGCCAACGUCCUCAACCUCCAAUGCAUCCCACCACAUGAUGAUGCCUGAAGUGCCUUGGUUUUUUC	2.99
GACCAAUCUGCCCUCAGAGCUCGAGAACAUCUUCGGAUGCAGAGGAGGCAGGCUUCGGUGGCGCGAUAGCGCCAACGUCCUCAACCUCCAAUGCAUCCCACCACAUGAUGAUGCCUCAAGAGCCUUGGUUUAUUG	-3.52
GACCAAUCUGCCCUCAGAGCUCGAGAACAUCUUCGGAUGCAGAGGAGGCAGGCUUCGGUGGCGCGAUAGCGCCAACGUCCUCAACCUCCAAUGCAUCCCACCACAUGAUGAUGCCUUAAAAGCCUUGGUUUUUUG	-2.24
GACCAAUCUGCCCUCAGAGCUCGAGAACAUCUUCGGAUGCAGAGGAGGCAGGCUUCGGUGGCGCGAUAGCGCCAACGUCCUCAACCUCCAAUGCAUCCCACCACAUGAUGAUGCCUGUAGAGCCUUGGUUUUAUG	-1.21
GACCAAUCUGCCCUCAGAGCUCGAGAACAUCUUCGGAUGCAGAGGAGGCAGGCUUCGGUGGCGCGAUAGCGCCAACGUCCUCAACCUCCAAUGCAUCCCACCACAUGAUGAUGCCUGAUGUGCCUUGGUUUUUUG	1.77
GACCAAUCUGCCCUCAGAGCUCGAGAACAUCUUCGGAUGCAGAGGAGGCAGGCUUCGGUGGCGCGAUAGCGCCAACGUCCUCAACCUCCAAUGCAUCCCACCACAUGAUGAUGCCUCAAGGGCCUUGGUCUUUUG	0.325
GACCAAUCUGCCCUCAGAGCUCGAGAACAUCUUCGGAUGCAGAGGAGGCAGGCUUCGGUGGCGCGAUAGCGCCAACGUCCUCAACCUCCAAUGCAUCCCACCACAUGAUGAUGCCUGAUGAGACUUGGUUUUUUG	-0.124
GACCAAUCUGCCCUCAGAGCUCGAGAACAUCUUCGGAUGCAGAGGAGGCAGGCUUCGGUGGCGCGAUAGCGCCAACGUCCUCAACCUCCAAUGCAUCCCACCACAUGAUGAUGCCUGAUGAGUCUUGGUUUUUUG	2.17
GACCAAUCUGCCCUCAGAGCUCGAGAACAUCUUCGGAUGCAGAGGAGGCAGGCUUCGGUGGCGCGAUAGCGCCAACGUCCUCAACCUCCAAUGCAUCCCACCACAUGAUGAUGCCUUUAGAGCCUUGGUCUUUUG	-3.28
GACCAAUCUGCCCUCAGAGCUCGAGAACAUCUUCGGAUGCAGAGGAGGCAGGCUUCGGUGGCGCGAUAGCGCCAACGUCCUCAACCUCCAAUGCAUCCCACCACAUGAUGAUGCCUGUAGAGCCUUGAUUUUUUG	-1.29
GACCAAUCUGCCCUCAGAGCUCGAGAACAUCUUCGGAUGCAGAGGAGGCAGGCUUCGGUGGCGCGAUAGCGCCAACGUCCUCAACCUCCAAUGCAUCCCACCACAUGAUGAUGCCUGUAGAGUCUUGGUUUUUUG	-0.82
GACCAAUCUGCCCUCAGAGCUCGAGAACAUCUUCGGAUGCAGAGGAGGCAGGCUUCGGUGGCGCGAUAGCGCCAACGUCCUCAACCUCCAAUGCAUCCCACCACAUGAUGAUGCCUCAAGAGCCUUGGUUAUUUG	-4.01
GACCAAUCUGCCCUCAGAGCUCGAGAACAUCUUCGGAUGCAGAGGAGGCAGGCUUCGGUGGCGCGAUAGCGCCAACGUCCUCAACCUCCAAUGCAUCCCACCACAUGAUGAUGCCUGCAGAGCCUUGGUUUUUUG	-2.45
GACCAAUCUGCCCUCAGAGCUCGAGAACAUCUUCGGAUGCAGAGGAGGCAGGCUUCGGUGGCGCGAUAGCGCCAACGUCCUCAACCUCCAAUGCAUCCCACCACAUGAUGAUGCCUGUAGAGCCUUGGUUUUUUG	0.282
GACCAAUCUGCCCUCAGAGCUCGAGAACAUCUUCGGAUGCAGAGGAGGCAGGCUUCGGUGGCGCGAUAGCGCCAACGUCCUCAACCUCCAAUGCAUCCCACCACAUGAUGAUGCCUGGAGAGCCUUGGUUUUUUG	-0.226
GACCAAUCUGCCCUCAGAGCUCGAGAACAUCUUCGGAUGCAGAGGAGGCAGGCUUCGGUGGCGCGAUAGCGCCAACGUCCUCAACCUCCAAUGCAUCCCACCACAUGAUGAUGCCUGUAUAGCCUUGGUUUUUUG	-0.245
GACCAAUCUGCCCUCAGAGCUCGAGAACAUCUUCGGAUGCAGAGGAGGCAGGCUUCGGUGGCGCGAUAGCGCCAACGUCCUCAACCUCCAAUGCAUCCCACCACAUGAUGAUGCCUGAAAAUCCUUGGUUUUUUG	0.476
GACCAAUCUGCCCUCAGAGCUCGAGAACAUCUUCGGAUGCAGAGGAGGCAGGCUUCGGUGGCGCGAUAGCGCCAACGUCCUCAACCUCCAAUGCAUCCCACCACAUGAUGAUGCCUUAUGAGUCUUGGUUUUUUG	-0.29
GACCAAUCUGCCCUCAGAGCUCGAGAACAUCUUCGGAUGCAGAGGAGGCAGGCUUCGGUGGCGCGAUAGCGCCAACGUCCUCAACCUCCAAUGCAUCCCACCACAUGAUGAUGCCUGAAGUGCCAUGGUUUUUUG	1.66

From the RNAGym collection of RNA variant scans (doi:10.1073/pnas.2313332121)
